Assay results taken from patent publication US10010560 (dated 2018).

What was measured:
[1] = biological target: HSP70 (ADP-bound) (human); assay: ITC, ADP
[2] = biological target: HSP70 (ATP-bound) (human); assay: ITC, ATP
Chain of HSP70 (ATP-bound) (human) (chain, as listed by the source): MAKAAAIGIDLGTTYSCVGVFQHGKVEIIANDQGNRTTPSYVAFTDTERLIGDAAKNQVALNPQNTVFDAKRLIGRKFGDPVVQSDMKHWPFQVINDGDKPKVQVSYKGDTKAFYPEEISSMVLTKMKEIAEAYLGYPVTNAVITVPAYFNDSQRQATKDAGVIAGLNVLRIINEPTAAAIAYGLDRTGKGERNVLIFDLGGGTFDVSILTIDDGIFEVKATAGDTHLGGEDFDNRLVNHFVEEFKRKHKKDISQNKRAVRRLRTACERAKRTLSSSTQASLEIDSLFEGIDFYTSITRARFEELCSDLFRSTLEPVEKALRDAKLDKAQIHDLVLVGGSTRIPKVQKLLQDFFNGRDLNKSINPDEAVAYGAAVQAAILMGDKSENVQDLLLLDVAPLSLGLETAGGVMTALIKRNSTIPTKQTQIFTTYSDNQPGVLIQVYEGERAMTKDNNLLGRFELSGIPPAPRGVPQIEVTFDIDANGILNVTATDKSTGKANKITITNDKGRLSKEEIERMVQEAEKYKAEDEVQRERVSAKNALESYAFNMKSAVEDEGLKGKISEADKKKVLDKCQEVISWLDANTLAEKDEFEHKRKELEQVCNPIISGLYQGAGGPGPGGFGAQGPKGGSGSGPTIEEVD

Chain of HSP70 (ADP-bound) (human) (chain, as listed by the source): as above

B1: NRLLLTG peptide (peptide)
chain: NRLLLTG
Question: Which results are given for B1?
Answer: Kd [1]: 10 µM; Kd [2]: 1250 µM
